In doi:10.1101/779520:
Like-named read-outs stand apart in the source and are kept apart here. Values belong to the molecule of their own block, whether it stands above or below them.

What was measured:
[1] = target: otoferlin (mouse (endogenous in inner hair cells)); test: proximity ligation
[2] = target: otoferlin (mouse (endogenous in inner hair cells)); test: proximity ligation; remark: listed apart in the source

Chain of otoferlin (mouse (endogenous in inner hair cells)) (Q9ESF1 whole entry): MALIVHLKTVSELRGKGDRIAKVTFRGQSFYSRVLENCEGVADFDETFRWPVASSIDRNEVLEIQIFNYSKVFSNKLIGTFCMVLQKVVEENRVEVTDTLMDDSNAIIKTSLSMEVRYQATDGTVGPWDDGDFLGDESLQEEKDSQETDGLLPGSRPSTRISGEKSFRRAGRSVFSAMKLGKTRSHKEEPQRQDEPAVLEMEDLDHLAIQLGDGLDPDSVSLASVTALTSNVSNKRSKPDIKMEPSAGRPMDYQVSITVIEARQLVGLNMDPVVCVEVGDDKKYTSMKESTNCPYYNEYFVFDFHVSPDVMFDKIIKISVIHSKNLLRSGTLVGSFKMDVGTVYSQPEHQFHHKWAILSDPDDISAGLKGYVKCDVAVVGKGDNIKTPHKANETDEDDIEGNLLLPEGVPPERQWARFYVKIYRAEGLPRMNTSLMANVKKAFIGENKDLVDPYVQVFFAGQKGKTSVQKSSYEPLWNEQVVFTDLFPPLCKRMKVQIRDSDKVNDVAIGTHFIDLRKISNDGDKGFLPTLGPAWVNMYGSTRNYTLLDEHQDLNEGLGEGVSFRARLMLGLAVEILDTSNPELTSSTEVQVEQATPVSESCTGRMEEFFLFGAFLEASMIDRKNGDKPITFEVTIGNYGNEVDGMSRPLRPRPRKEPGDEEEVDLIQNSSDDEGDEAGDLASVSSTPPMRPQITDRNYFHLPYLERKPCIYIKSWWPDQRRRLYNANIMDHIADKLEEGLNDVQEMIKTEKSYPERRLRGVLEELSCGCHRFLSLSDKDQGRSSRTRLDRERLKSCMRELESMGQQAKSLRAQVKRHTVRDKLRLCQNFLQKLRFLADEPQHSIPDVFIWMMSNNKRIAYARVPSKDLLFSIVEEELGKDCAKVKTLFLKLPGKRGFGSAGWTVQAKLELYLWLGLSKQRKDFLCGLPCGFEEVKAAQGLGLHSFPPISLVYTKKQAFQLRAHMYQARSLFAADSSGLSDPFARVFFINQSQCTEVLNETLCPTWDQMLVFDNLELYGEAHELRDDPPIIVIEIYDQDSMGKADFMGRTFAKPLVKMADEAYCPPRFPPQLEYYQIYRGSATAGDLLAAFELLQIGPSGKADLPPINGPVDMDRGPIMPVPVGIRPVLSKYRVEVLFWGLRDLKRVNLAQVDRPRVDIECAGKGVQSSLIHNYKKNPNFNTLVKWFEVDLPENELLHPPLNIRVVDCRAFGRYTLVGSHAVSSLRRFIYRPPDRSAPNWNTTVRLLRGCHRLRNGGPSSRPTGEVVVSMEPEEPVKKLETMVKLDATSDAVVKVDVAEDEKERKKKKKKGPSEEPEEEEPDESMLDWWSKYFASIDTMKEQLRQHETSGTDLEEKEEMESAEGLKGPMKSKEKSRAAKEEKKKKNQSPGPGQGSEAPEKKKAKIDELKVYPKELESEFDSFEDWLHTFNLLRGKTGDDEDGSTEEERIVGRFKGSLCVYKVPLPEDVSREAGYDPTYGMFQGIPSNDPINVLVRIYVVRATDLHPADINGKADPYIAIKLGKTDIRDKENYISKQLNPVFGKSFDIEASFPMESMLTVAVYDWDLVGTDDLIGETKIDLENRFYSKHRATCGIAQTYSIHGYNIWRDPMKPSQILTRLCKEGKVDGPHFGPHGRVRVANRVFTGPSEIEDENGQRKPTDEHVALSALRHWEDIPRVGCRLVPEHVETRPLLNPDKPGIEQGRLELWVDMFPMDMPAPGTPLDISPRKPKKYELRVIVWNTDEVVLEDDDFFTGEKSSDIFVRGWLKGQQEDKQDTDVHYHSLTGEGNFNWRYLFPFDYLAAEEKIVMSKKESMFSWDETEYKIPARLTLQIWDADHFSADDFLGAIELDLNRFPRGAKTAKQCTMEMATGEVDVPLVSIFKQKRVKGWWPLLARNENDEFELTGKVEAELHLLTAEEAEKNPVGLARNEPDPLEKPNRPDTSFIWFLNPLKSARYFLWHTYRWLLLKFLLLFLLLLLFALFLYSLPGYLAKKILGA

- PLA puncta fluorescence intensity per cell, % of rest, after 1-min stimulation [1]: 442%
Molecule: protein kinase C α (from UniProt P20444 1-672) (enzyme)

- PLA puncta fluorescence intensity per cell, % of rest, PMA 5 min [1]: 133%
- PLA puncta fluorescence intensity per cell, % of rest, PMA 15 min [1]: 149%
- PLA puncta fluorescence intensity per cell, % of rest, after 1-min stimulation [1]: 173%
Molecule: myosin VI (from UniProt Q64331 1-1262) (natural protein)

- PLA puncta fluorescence intensity per cell, % of rest, PMA 5 min [2]: 175%
- PLA puncta fluorescence intensity per cell, % of rest, PMA 15 min [2]: 161%
- PLA puncta fluorescence intensity per cell, % of rest, after 1-min stimulation [2]: 560%
B1: calbindin-D28k (natural protein)
chain: MAESHLQSSLITASQFFEIWLHFDADGSGYLEGKELQNLIQELLQARKKAGLELSPEMKSFVDQYGQRDDGKIGIVELAHVLPTEENFLLLFRCQQLKSCEEFMKTWRKYDTDHSGFIETEELKNFLKDLLEKANKTVDDTKLAEYTDLMLKLFDSNNDGKLELTEMARLLPVQENFLLKFQGIKMCGKEFNKAFELYDQDGNGYIDENELDALLKDLCEKNKQELDINNITTYKKNIMALSDGGKLYRTDLALILSAGDN
